In US20250066452A1, “SYNTHETIC AMPHIPATHIC HELICAL PEPTIDES AND TREATMENT METHODS USING SYNTHETIC AMPHIPATHIC HELICAL PEPTIDES” (UNIVERSITY OF MARYLAND, BALTIMORE, priority 2022, published 2025):

Assays:
CD36 = molecular target: T1, CD36 (Homo sapiens, UniProt P16671); experiment: IL-8 in conditioned medium (ELISA) of CD36-expressing HEK293 cells after 20 hours incubation with CD36 ligands; assay type: cell-based; settings: CD36-expressing HEK293 cells; increasing ligand concentrations; 20 hours (FIG. 8)
T1 construct: expressed in transfected cells; host or cells: HEK293
Method: (§1) Following 20 hours incubation of wild-type (WT) and CD36-expressing (CD36+) HEK293 cells with increasing concentrations of CD36 ligands, the IL-8 levels were determined in conditioned medium by ELISA.
Following 20 hours incubation of CD36-expressing cells with the indicated amounts of the ligands, the IL-8 levels were determined in conditioned medium.
(§2) To study this, the applicant conducted cell culture experiments using wildtype (WT) and CD36+ expressing (CD36+) HEK293 cells, treated with increasing amounts of CD36 ligands. Specifically, the ligands tested were the PAMP lipopolysaccharide (LPS) and the DAMPs high mobility group box 1 protein (HMGB1), Histone H3B, and heat shock protein 60 (HSP60). […] Similarly to HSP60, it is presumed that HSP70 and HSP90 also cause inflammation mediated by the CD36 receptor, and which may be alleviated by the disclosed peptides.
Additionally, the applicant studied the effects of the above-referenced SAHP L37pA as an inhibitor of CD36-dependent, PAMP/DAMP-induced pro-inflammatory response. See FIGS. 9(a)-9(c) To study this, the applicant conducted cell culture experiments using CD36+ HEK293 cells, treated with increasing amounts of CD36 ligands. […] As controls, no treatment, L37pA alone, and L3D alone were administered.
As controls, no treatment, L37pA alone, and L3D alone were administered. […]

[1] = tested on: wild-type (WT) HEK293 cells; experiment: IL-8 in conditioned medium (ELISA) of wild-type HEK293 cells after 20 hours incubation with CD36 ligands; assay type: cell-based; settings: wildtype HEK293 cells; increasing ligand concentrations; 20 hours (FIG. 8)
Method: as §1, §2

T1 sequence (P16671 whole entry): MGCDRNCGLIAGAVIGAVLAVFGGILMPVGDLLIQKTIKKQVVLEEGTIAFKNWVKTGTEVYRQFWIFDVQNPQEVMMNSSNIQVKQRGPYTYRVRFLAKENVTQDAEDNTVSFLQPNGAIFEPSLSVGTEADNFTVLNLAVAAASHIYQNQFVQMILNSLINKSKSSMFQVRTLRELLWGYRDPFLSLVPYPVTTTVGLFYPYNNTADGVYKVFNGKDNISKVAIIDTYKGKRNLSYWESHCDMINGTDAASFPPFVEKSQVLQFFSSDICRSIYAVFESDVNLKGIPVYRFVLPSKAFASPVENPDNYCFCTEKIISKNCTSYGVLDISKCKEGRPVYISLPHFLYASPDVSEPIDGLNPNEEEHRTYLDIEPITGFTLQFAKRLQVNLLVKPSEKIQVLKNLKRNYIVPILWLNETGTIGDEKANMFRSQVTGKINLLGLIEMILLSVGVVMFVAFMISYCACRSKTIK

- IL-8 produced by cells treated with the ligand (CD36): significant amount of IL-8
B1: heat shock protein 60 (protein, UniProt P10809 27-573, looked up)
60 kDa heat shock protein, …: AKDVKFGADARALMLQGVDLLADAVAVTMGPKGRTVIIEQSWGSPKVTKDGVTVAKSIDLKDKYKNIGAKLVQDVANNTNEEAGDGTTTATVLARSIAKEGFEKISKGANPVEIRRGVMLAVDAVIAELKKQSKPVTTPEEIAQVATISANGDKEIGNIISDAMKKVGRKGVITVKDGKTLNDELEIIEGMKFDRGYISPYFINTSKGQKCEFQDAYVLLSEKKISSIQSIVPALEIANAHRKPLVIIAEDVDGEALSTLVLNRLKVGLQVVAVKAPGFGDNRKNQLKDMAIATGGAVFGEEGLTLNLEDVQPHDLGKVGEVIVTKDDAMLLKGKGDKAQIEKRIQEIIEQLDVTTSEYEKEKLNERLAKLSDGVAVLKVGGTSDVEVNEKKDRVTDALNATRAAVEEGIVLGGGCALLRCIPALDSLTPANEDQKIGIEIIKRTLKIPAMTIAKNAGVEGSLIVEKIMQSSSEVGYDAMAGDFVNMVEKGIIDPTKVVRTALLDAAGVASLLTTAEVVVTEIPKEEKDPGMGAMGGMGGGMGGGMF
notes: DAMP, CD36 ligand
- IL-8 produced by cells treated with the ligand [1]: minimal amount of interleukin 8
